From the supplement of paper PMC10065799, “High-throughput profiling of sequence recognition by tyrosine kinases and SH2 domains using bacterial peptide display” (eLife, 2023)

Columns and labels:
SHP2-C SH2 = assay: SH2 binding enrichment of the phosphorylated peptide, bacterial display (enrichment ratio); higher = better substrate or ligand; peptides without Tyr show the background
Grb2 SH2 = Grb2 SH2 (UniProt P62993); assay: as above
c-Src SH2 = assay: as above
EPHB2 = EPHB2 (UniProt P29323); assay: phosphorylation enrichment, bacterial display (enrichment ratio); higher = better substrate or ligand; peptides without Tyr show the background
FGFR3 = FGFR3 (UniProt P22607); assay: as above
Fer (mouse) = assay: as above
Fyn = Fyn (UniProt P06241); assay: as above
c-Abl (mouse) = assay: as above
Hck = Hck (UniProt P08631); assay: as above
MERTK = MERTK (UniProt Q12866); assay: as above
AncSZ = assay: as above
FGFR1 = FGFR1 (UniProt P11362); assay: as above
Jak2 = Jak2 (UniProt O60674); assay: as above
c-Src = assay: as above
Fes = Fes (UniProt P07332); assay: as above
EPHB1 = EPHB1 (UniProt P54762); assay: as above
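For SH2 binding enrichment of the phosphorylated peptide, bacterial display in this document: peptide library displayed on the E. coli surface as eCPX fusions, selected cells deep-sequenced, score is each peptide's frequency after selection divided by its frequency in the input.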
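For phosphorylation enrichment, bacterial display in this document: 11-residue human phosphosite peptides and single-mutation variants displayed on the E. coli surface, counted by deep sequencing, each peptide's frequency after selection divided by its frequency in the unselected input library; frequency after pTyr selection over input frequency; kinase dosed for 20-30% of maximal phosphorylation in three min.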

Chain of EPHB1 (P54762 whole entry, looked up, the tested form may be a part): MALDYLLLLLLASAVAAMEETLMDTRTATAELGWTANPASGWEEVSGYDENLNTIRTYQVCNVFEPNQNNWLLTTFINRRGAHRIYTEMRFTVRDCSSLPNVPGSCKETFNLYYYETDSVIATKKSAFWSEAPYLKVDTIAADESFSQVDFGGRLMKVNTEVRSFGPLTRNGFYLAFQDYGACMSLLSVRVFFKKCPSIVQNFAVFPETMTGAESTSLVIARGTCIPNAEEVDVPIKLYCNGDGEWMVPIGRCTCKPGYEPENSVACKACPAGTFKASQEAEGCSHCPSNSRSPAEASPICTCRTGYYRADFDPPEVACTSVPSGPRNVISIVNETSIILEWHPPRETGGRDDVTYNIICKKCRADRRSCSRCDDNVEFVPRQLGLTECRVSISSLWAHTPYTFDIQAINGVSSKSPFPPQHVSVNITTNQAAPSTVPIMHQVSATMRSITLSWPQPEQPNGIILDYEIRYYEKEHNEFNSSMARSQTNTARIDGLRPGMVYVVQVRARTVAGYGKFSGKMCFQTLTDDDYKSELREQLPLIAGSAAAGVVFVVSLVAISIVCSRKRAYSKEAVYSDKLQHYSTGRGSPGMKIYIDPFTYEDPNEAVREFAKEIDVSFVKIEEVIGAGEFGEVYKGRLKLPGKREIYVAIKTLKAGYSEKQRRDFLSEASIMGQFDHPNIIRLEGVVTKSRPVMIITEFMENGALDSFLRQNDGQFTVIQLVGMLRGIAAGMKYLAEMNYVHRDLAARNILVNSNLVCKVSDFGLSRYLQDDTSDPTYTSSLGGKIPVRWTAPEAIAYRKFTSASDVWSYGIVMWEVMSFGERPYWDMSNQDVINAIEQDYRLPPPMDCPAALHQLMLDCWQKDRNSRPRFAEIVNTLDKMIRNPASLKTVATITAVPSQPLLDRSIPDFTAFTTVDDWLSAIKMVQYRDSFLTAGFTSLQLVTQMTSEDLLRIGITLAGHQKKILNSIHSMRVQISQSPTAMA
Chain of FGFR1 (P11362 whole entry, looked up): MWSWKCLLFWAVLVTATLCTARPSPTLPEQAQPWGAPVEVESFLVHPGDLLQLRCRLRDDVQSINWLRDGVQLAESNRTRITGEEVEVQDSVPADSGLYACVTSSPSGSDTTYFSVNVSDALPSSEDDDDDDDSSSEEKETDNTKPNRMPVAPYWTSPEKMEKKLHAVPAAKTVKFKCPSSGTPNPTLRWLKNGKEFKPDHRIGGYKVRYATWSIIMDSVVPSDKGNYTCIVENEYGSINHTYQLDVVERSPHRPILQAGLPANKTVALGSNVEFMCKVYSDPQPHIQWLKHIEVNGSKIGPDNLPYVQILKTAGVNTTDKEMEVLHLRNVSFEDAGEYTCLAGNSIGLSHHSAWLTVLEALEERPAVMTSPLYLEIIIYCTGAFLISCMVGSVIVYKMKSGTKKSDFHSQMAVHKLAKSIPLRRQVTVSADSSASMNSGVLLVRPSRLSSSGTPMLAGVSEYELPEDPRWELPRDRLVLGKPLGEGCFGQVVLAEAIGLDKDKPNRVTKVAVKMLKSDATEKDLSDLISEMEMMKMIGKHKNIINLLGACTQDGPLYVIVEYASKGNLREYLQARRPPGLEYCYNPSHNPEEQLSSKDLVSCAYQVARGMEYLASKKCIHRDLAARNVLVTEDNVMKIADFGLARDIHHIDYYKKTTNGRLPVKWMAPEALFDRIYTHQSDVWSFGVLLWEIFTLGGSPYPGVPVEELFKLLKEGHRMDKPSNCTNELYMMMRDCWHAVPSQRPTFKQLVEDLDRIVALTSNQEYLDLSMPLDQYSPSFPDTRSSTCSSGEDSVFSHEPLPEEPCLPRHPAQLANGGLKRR
Chain of Hck (P08631 whole entry, looked up): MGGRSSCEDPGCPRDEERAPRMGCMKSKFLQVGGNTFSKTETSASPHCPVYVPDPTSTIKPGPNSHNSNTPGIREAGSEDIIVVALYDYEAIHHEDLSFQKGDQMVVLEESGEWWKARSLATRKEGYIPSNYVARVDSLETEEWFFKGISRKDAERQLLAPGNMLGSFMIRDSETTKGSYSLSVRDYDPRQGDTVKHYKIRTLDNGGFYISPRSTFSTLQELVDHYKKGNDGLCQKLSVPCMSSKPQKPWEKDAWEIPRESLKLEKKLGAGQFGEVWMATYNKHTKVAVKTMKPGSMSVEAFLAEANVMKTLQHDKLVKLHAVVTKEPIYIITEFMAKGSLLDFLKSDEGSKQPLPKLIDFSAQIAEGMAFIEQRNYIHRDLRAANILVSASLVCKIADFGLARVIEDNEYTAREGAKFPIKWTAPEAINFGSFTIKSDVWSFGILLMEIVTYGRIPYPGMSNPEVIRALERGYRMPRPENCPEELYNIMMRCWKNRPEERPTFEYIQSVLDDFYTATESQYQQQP
Chain of FGFR3 (P22607 whole entry, looked up): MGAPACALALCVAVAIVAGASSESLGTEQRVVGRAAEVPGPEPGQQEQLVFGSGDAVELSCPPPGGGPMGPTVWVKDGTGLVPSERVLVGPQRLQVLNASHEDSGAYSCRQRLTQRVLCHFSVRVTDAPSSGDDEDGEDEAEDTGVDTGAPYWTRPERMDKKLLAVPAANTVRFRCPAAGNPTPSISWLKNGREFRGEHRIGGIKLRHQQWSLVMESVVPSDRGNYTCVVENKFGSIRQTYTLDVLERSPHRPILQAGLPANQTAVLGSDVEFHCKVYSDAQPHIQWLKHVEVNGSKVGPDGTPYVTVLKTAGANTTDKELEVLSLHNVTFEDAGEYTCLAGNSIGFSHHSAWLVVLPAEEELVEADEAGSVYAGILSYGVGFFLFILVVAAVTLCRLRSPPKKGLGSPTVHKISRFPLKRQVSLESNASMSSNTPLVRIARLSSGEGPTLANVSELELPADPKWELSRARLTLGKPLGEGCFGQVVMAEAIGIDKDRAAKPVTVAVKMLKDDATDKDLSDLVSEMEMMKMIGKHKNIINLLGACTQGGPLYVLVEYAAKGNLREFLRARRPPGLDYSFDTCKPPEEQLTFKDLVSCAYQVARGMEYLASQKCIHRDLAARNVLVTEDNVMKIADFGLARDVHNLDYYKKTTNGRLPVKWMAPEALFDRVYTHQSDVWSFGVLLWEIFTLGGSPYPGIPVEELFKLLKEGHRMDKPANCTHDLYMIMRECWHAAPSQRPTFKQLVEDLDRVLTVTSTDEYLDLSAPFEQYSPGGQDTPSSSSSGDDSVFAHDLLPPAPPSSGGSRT
Chain of Jak2 (O60674 whole entry, looked up): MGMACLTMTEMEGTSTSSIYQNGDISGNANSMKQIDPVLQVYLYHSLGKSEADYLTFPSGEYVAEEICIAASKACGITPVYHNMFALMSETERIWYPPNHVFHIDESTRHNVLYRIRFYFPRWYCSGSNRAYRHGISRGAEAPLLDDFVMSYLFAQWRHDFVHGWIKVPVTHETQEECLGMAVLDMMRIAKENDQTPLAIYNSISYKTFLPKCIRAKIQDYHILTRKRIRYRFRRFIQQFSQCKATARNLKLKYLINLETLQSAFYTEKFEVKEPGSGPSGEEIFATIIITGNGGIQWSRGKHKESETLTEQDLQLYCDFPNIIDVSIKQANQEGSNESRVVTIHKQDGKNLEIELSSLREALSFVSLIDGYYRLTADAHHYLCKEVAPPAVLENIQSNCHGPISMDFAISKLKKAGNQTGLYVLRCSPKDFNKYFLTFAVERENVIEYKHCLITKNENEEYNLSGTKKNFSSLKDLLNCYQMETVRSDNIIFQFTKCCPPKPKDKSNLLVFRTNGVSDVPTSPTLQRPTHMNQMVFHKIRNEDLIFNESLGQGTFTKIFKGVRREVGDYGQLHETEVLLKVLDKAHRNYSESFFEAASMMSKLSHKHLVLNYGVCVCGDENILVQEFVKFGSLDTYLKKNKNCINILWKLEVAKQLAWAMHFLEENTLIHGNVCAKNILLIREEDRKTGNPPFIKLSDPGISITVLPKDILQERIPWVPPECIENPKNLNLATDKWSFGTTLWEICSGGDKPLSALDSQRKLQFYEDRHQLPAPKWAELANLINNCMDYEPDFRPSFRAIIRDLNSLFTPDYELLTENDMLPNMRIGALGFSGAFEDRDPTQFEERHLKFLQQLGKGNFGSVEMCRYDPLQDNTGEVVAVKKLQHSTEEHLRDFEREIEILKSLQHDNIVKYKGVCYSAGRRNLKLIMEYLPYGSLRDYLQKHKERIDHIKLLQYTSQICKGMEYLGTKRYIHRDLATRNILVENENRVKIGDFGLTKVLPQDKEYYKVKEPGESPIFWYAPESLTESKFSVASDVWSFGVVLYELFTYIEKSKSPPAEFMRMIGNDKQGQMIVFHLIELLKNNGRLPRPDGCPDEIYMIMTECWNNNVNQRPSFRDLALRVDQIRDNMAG
Chain of Fes (P07332 whole entry, looked up): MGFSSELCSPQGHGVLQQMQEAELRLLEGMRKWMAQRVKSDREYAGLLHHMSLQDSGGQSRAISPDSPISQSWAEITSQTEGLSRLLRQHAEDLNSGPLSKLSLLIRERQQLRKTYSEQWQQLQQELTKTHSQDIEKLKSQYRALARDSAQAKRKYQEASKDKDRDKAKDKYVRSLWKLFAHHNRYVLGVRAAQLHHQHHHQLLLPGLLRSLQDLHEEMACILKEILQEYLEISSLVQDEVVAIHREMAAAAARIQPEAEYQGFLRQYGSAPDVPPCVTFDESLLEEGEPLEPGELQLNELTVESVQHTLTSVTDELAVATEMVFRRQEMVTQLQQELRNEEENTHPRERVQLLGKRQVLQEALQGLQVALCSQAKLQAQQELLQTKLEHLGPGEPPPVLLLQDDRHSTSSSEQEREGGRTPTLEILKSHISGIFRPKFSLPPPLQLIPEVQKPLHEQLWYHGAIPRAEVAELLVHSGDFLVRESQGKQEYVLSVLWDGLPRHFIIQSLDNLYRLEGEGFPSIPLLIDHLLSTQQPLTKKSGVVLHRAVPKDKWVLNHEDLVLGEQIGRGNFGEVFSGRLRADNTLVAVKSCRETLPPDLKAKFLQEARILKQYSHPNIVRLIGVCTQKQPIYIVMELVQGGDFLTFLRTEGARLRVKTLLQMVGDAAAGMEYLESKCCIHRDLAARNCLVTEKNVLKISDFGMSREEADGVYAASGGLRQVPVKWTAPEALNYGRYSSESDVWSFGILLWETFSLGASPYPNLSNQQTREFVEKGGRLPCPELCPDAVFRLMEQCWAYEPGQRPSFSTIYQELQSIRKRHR

| SH2 binding enrichment (SHP2-C SH2) | SH2 binding enrichment (Grb2 SH2) | SH2 binding enrichment (c-Src SH2) | Sequence | phosphorylation enrichment (EPHB2) | phosphorylation enrichment (FGFR3) | phosphorylation enrichment (Fer (mouse)) | phosphorylation enrichment (Fyn) | phosphorylation enrichment (c-Abl (mouse)) | phosphorylation enrichment (Hck) | phosphorylation enrichment (MERTK) | phosphorylation enrichment (AncSZ) | phosphorylation enrichment (FGFR1) | phosphorylation enrichment (Jak2) | phosphorylation enrichment (c-Src) | phosphorylation enrichment (Fes) | phosphorylation enrichment (EPHB1) |
| --- | --- | --- | --- | --- | --- | --- | --- | --- | --- | --- | --- | --- | --- | --- | --- | --- |
| 0.461 | 0.714 | 3.83 | LRSRVYEVPVE [SLC26A3_Y756_N753S] | 1.03 | 0.833 | 2.09 | 0.962 | 0.719 | 1.25 | 1.66 | 1.01 | 0.722 | 0.795 | 0.708 | 0.91 | 0.773 |
| 1.38 | 1.44 | 1.13 | VPLLEYFRDIF [CDAN1_Y712_YF] | 0.715 | 0.943 | 0.584 | 0.543 | 1.06 | 0.566 | 0.56 | 1.42 | 0.687 | 1.41 | 0.52 | 1.6 | 0.523 |
| 0.452 | 0.806 | 0.438 | SLTRLYVGENA [NLRP3_Y861] | 0.521 | 0.517 | 0.444 | 0.424 | 0.496 | 0.554 | 0.34 | 0.725 | 0.485 | 0.494 | 0.357 | 0.703 | 0.357 |
| 0.523 | 0.672 | 0.354 | DFPMGYPSFLA [TBCK_Y153_I151M_YF] | 0.469 | 0.49 | 0.432 | 0.424 | 0.592 | 0.358 | 0.429 | 0.64 | 0.424 | 0.691 | 0.428 | 0.832 | 0.496 |
| 0.913 | 1.07 | 0.586 | RQQQDYWLIDV [ANPEP_Y600] | 4.64 | 17.4 | 3.21 | 0.847 | 1.32 | 0.625 | 4.02 | 3.3 | 20.6 | 2.43 | 1.47 | 1.6 | 8.95 |
| 0.375 | 0.85 | 0.395 | PNATLYKMSSI [SERPINA7_Y40] | 0.325 | 0.495 | 0.397 | 0.35 | 0.472 | 0.401 | 0.361 | 0.592 | 0.406 | 0.358 | 0.349 | 0.55 | 0.456 |
| 0.91 | 0.708 | 0.687 | TNFSLYLRSLE [MTM1_Y71_R69S_YF] | 0.491 | 0.744 | 0.438 | 0.368 | 0.908 | 0.432 | 0.42 | 1.2 | 0.41 | 1.36 | 0.385 | 1.38 | 0.754 |
| 0.58 | 0.914 | 0.457 | KAALSYVSEIG [BPIFB2_Y36] | 0.385 | 0.558 | 0.387 | 0.364 | 0.453 | 0.476 | 0.326 | 0.555 | 0.456 | 0.668 | 0.372 | 0.636 | 0.352 |
| 0.894 | 0.907 | 0.615 | AKFPSYEKNKK [FOXL2_Y91_F90S] | 0.396 | 0.475 | 0.49 | 0.423 | 0.544 | 0.44 | 0.499 | 0.624 | 0.618 | 1.07 | 0.562 | 0.7 | 0.577 |
| 0.759 | 0.842 | 0.409 | AARVSYRLASG [DCHS1_Y1582] | 0.49 | 0.392 | 0.51 | 0.315 | 0.423 | 0.378 | 0.422 | 0.554 | 0.354 | 0.428 | 0.382 | 0.588 | 0.352 |
| 1.2 | 1.18 | 0.877 | SFPSYYTSHVQ [NEFL_Y443] | 1.1 | 1.76 | 0.759 | 0.59 | 1.85 | 1.1 | 5.38 | 0.88 | 1.86 | 4.39 | 0.737 | 0.914 | 1.88 |
| 0.714 | 0.713 | 0.477 | GVYSRHFTTYD [CLCA1_Y661_Y661H] | 0.473 | 0.508 | 0.642 | 0.648 | 0.359 | 1.31 | 0.569 | 0.823 | 0.389 | 0.507 | 0.768 | 0.657 | 0.495 |
| 0.445 | 0.734 | 3.41 | ENKGVYVPMSG [IVD_Y277_L279P] | 0.383 | 0.531 | 0.405 | 0.367 | 0.503 | 0.519 | 0.451 | 0.599 | 0.48 | 0.517 | 0.449 | 0.559 | 0.411 |
| 0.484 | 0.755 | 0.45 | ISRASYFRKGG [ALK_Y1282_Y1278S_YF] | 0.37 | 0.388 | 0.456 | 0.419 | 0.597 | 0.435 | 0.469 | 0.664 | 0.341 | 0.59 | 0.506 | 0.724 | 0.4 |
| 0.711 | 0.729 | 0.632 | CTTIHCNYMCN [TP53_Y234_Y234C] | 0.612 | 0.731 | 0.599 | 0.403 | 0.775 | 0.503 | 0.395 | 1.06 | 0.41 | 0.921 | 1.14 | 1.15 | 0.784 |
| 0.68 | 0.798 | 0.605 | LKEIRYPPFTD [ALDH3B2_Y362_H361R_YF] | 0.731 | 1.07 | 1.09 | 0.926 | 1.06 | 0.63 | 0.725 | 2.71 | 1.09 | 2.05 | 0.919 | 2.01 | 0.883 |
| 0.776 | 0.956 | 0.956 | KSELAYEIFDK [MYOM2_Y1024] | 0.603 | 0.782 | 1 | 1.94 | 0.915 | 0.951 | 4.45 | 2 | 0.65 | 1.24 | 4.27 | 1.21 | 0.596 |

| SH2 binding enrichment (SHP2-C SH2) | SH2 binding enrichment (Grb2 SH2) | SH2 binding enrichment (c-Src SH2) | Sequence | phosphorylation enrichment (EPHB2) | phosphorylation enrichment (FGFR3) | phosphorylation enrichment (Fer (mouse)) | phosphorylation enrichment (Fyn) | phosphorylation enrichment (c-Abl (mouse)) | phosphorylation enrichment (Hck) | phosphorylation enrichment (MERTK) | phosphorylation enrichment (AncSZ) | phosphorylation enrichment (FGFR1) | phosphorylation enrichment (Jak2) | phosphorylation enrichment (c-Src) | phosphorylation enrichment (Fes) | phosphorylation enrichment (EPHB1) |
| --- | --- | --- | --- | --- | --- | --- | --- | --- | --- | --- | --- | --- | --- | --- | --- | --- |
| 0.713 | 0.813 | 0.703 | EFKDAYTFAAD [BRDT_Y335_K336T_YF] | 0.519 | 0.606 | 0.477 | 0.63 | 0.647 | 0.57 | 0.456 | 1.09 | 0.508 | 0.835 | 1.36 | 0.959 | 0.452 |
| 0.451 | 0.781 | 0.451 | DTYDPYLDIAL [USP36_Y268_V271I] | 0.892 | 0.968 | 0.721 | 1.47 | 0.982 | 1.06 | 0.611 | 1.6 | 0.901 | 1.32 | 2.42 | 1.55 | 1.03 |
| 0.85 | 0.683 | 5.63 | GESQGYDIMEP [MSH2_Y863] | 0.555 | 0.642 | 0.441 | 0.454 | 0.605 | 0.487 | 0.472 | 1.14 | 0.424 | 0.827 | 0.419 | 0.94 | 0.541 |
| 0.713 | 0.746 | 0.548 | MFDKEYFSVHN [MET_Y1234_YF] | 0.566 | 1.31 | 0.451 | 0.488 | 0.782 | 0.513 | 0.393 | 1.31 | 1.84 | 1.46 | 0.632 | 1.03 | 0.605 |
| 0.856 | 0.976 | 0.853 | IFHLSYIHNCE [PDE6B_Y227_L228I_YF] | 0.71 | 0.91 | 0.526 | 0.494 | 0.745 | 0.577 | 0.392 | 1.16 | 0.495 | 1.04 | 0.352 | 1.35 | 0.699 |
| 0.922 | 0.726 | 1.4 | SHNELYYEAAE [VANGL1_Y344_E347A] | 0.737 | 2.54 | 3.52 | 0.986 | 0.801 | 1.1 | 1.9 | 1.6 | 2.63 | 1.18 | 1.17 | 1.12 | 1 |
| 0.767 | 0.712 | 0.466 | ETLLYYGCRRS [POR_Y564] | 0.506 | 0.71 | 0.638 | 1.89 | 0.883 | 5.24 | 1.18 | 0.959 | 0.795 | 1.67 | 3.48 | 0.897 | 0.63 |
| 1.06 | 1.05 | 1.45 | LENSTYQYIHV [CRB1_Y760_R764H] | 5.17 | 5.6 | 17.8 | 3.32 | 1.01 | 7.21 | 7.77 | 2.84 | 9.48 | 1.18 | 3.15 | 1.68 | 11.2 |
| 1.59 | 1.94 | 1.93 | CTTIHYNFVCN [TP53_Y234_M237V_YF] | 0.654 | 0.769 | 0.694 | 0.539 | 0.754 | 0.54 | 0.508 | 0.998 | 0.694 | 1.01 | 0.532 | 1.11 | 0.678 |
| 0.976 | 0.867 | 0.669 | AVLSLYASGRN [ACTA1_Y145_T150N] | 0.557 | 0.581 | 0.549 | 0.44 | 0.737 | 0.688 | 0.388 | 0.858 | 0.436 | 0.958 | 0.419 | 0.989 | 0.519 |
| 0.621 | 1.11 | 0.616 | LGRKLYSIATP [ABHD12_Y345_A349T] | 0.471 | 0.635 | 0.698 | 0.413 | 1.07 | 0.672 | 1.29 | 0.773 | 0.612 | 1.3 | 0.698 | 1.18 | 0.576 |
| 0.674 | 0.842 | 0.507 | TFGVAYRAKDK [CDK11B_Y453_V452A_YF] | 0.575 | 0.484 | 0.342 | 0.437 | 0.498 | 0.537 | 0.358 | 1.08 | 0.418 | 1.09 | 0.282 | 1.03 | 0.472 |
| 0.609 | 0.86 | 0.572 | MHDSNCVSKGS [PDGFRA_Y849_Y849C] | 0.367 | 0.485 | 0.388 | 0.387 | 0.559 | 0.456 | 0.384 | 0.57 | 0.456 | 0.683 | 0.414 | 0.72 | 0.396 |
| 0.98 | 1.03 | 0.632 | VNFDFYTVNLG [GFPT1_Y367_D366Y_YF] | 0.772 | 0.75 | 0.758 | 3.26 | 0.762 | 1.81 | 1.97 | 1.29 | 0.593 | 1.23 | 2.27 | 1.33 | 0.804 |
| 0.778 | 0.876 | 0.606 | FSPPYYHRNCM [HGD_Y334_R330S] | 0.664 | 0.609 | 0.482 | 0.505 | 0.749 | 0.515 | 0.451 | 0.807 | 0.66 | 0.817 | 0.482 | 0.957 | 0.558 |
| 2.08 | 1.96 | 1.43 | KFVVVYFREID [IL17RB_Y447_YF] | 0.523 | 0.691 | 0.446 | 0.436 | 0.724 | 0.538 | 0.362 | 1.2 | 0.49 | 1.17 | 0.408 | 1.27 | 0.508 |
